From patent publication US20020173621A1, “Method for producing dimerized polypeptide fusions” (ZymoGenetics, Inc., published 2002)

What was measured:
[1] = biological target: tetrameric PDGF β-receptor analog (purified from pSDL114+pSDL113 co-transfected cells) (human); experiment: saturation binding, analog plated at 12.1 ng/ml on goat anti-human IgG coated wells
[2] = biological target: tetrameric PDGF β-receptor analog (purified from pSDL114+pSDL113 co-transfected cells) (human); experiment: saturation binding, analog plated at 24.3 ng/ml on goat anti-human IgG coated wells
[3] = biological target: T1, tetrameric PDGF β-receptor analog (purified from pSDL114+pSDL113 co-transfected cells) (human); experiment: solid phase radioreceptor competition binding assay, analog plated at 48.6 ng/ml, unlabeled PDGF-BB against 125I-labeled PDGF-BBTyr
T1 heavy: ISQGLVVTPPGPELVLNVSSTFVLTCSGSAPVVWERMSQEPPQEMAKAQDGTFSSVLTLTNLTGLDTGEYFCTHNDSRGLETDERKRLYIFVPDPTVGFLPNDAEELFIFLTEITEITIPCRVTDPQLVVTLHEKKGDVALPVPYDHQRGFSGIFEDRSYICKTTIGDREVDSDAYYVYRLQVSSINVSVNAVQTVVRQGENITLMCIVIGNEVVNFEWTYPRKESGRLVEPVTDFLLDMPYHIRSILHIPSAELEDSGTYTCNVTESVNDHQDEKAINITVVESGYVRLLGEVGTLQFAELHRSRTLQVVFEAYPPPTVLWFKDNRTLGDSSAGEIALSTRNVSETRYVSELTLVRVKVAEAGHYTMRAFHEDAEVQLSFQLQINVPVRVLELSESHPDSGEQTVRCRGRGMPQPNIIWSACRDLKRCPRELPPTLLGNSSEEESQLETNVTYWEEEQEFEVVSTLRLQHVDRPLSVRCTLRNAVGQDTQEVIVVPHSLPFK
T1 light: T1 heavy
Protocol: In a solid phase radioreceptor competition binding assay (RRA), the wells of 96-well microtiter plates were coated with 100 μl of 2 μg/ml affinity purified goat anti-human IgG (Cappel Labs) diluted in 0.1 M Na₂HCO₃, pH 9.6. After an eighteen hour incubation at 4° C., the wells were washed once with ELISA C. The wells were blocked by incubation for 2 hours at 37° C. with 175 μl/well ELISA B. […] The unbound receptor was removed, and the test wells were incubated with increasing concentrations of serially diluted, unlabeled PDGF-BB (diluted in binding media. Following a two hour incubation at room temperature, the wells were washed three times with binding media. One hundred microliters of 5 ng/ml ¹²⁵I-labeled PDGF-BBTyr (Example 18.F.) was added to each well, and the plates were incubated for an additional two hours at room temperature. The wells were washed three times with binding media followed by a 5 minute incubation with 100 μl/well of 0.1 M citrate, pH 2.5. The samples were harvested and counted in a gamma counter.

Work on “PDGF-BBTyr (PDGF-BB mutant molecule having a tyrosine replacing the phenylalanine at position 23) (from UniProt P01127) (ligand)” yielded a half-maximal binding [1] of 0.8 ng/mL and a half-maximal binding [2] of 0.82 ng/mL.

B1: PDGF-BB (ligand)
chain: SLGSLTIAEPAMIAECKTRTEVFEISRRLIDRTNANFLVWPPCVEVQRCSGCCNNRNVQCRPTQVQLRPVQVRKIEIVRKKPIFKKATVTLEDHLACKCETVAAARPVT
B1 was tested, and the IC50 [3] was 8 ng/mL.
